Reference: paper PMC6016464, “Folding and binding pathways of BH3-only proteins are encoded within their intrinsically disordered sequence, not templated by partner proteins” (The Journal of Biological Chemistry, 2018)
Where no end group is shown, it is not given here. The star is where a group is joined. TAMRA = 5-carboxytetramethylrhodamine, CN(C)c1ccc2c(-c3ccc(C(=O)*)cc3C(=O)[O-])c3ccc(=[N+](C)C)cc-3oc2c1

T1: A1 protein (mouse, residues 1-152, P104K C113S, used as wild type) (mouse)
T1 sequence (Q07440 1-152 with P104K C113S, looked up): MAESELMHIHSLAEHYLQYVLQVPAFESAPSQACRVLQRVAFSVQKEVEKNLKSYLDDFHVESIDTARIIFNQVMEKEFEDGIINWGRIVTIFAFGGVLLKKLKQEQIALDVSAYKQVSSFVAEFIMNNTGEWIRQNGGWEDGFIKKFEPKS


Legend:
[1] = molecular target: T1, A1 protein (mouse, residues 1-152, P104K C113S, used as wild type) (mouse); test: stopped-flow fluorescence kinetics; association; TAMRA-labelled peptide with folded partner at least 10-fold higher (pseudo-first-order); kon from the gradient of kobs versus partner concentration; 25 °C; 50 mM sodium phosphate, 0.05% (v/v) Tween 20, pH 7.0
[2] = molecular target: T1, A1 protein (mouse, residues 1-152, P104K C113S, used as wild type) (mouse); test: stopped-flow fluorescence kinetics + other: fluorescence dissociation kinetics with competitor; Kd calculated as the ratio koff/kon of the kinetic rate constants; 25 °C; 50 mM sodium phosphate, 0.05% (v/v) Tween 20, pH 7.0
[3] = molecular target: T1, A1 protein (mouse, residues 1-152, P104K C113S, used as wild type) (mouse); test: fluorescence dissociation kinetics with competitor; dissociation; preformed complex of TAMRA-labelled peptide and partner protein mixed with excess unlabeled PUMA peptide as competitor; stopped-flow or Cary Eclipse spectrophotometer; 25 °C; 50 mM sodium phosphate, 0.05% (v/v) Tween 20, pH …

| Binder | kon [1] [M⁻¹ s⁻¹] | Kd [2] [nM] | koff [3] [s⁻¹] |
| --- | --- | --- | --- |
| {TAMRA}-RVEEEAWAREIGAQLRRAADDLNAQYERRRQEEQH [PUMA E132A peptide (on the M144A wild type), TAMRA-labelled] | 8.8e+06 | 0.088 | 0.00077 |
| {TAMRA}-RVEEEGWAREIGAQLRRAADDLNAQYERRRQEEQH [PUMA E132G peptide (on the M144A wild type), TAMRA-labelled] | 8.4e+06 | 0.102 | 0.00086 |
| {TAMRA}-RVEEEEWARAIGAQLRRAADDLNAQYERRRQEEQH [PUMA E136A peptide (on the M144A wild type), TAMRA-labelled] | 1.04e+07 | 0.046 | 0.00048 |
| {TAMRA}-RVEEEEWARGIGAQLRRAADDLNAQYERRRQEEQH [PUMA E136G peptide (on the M144A wild type), TAMRA-labelled] | 8.2e+06 | 0.29 | 0.00238 |
| {TAMRA}-RVEEEEWAREIGGQLRRAADDLNAQYERRRQEEQH [PUMA A139G peptide (on the M144A wild type), TAMRA-labelled] | 3.26e+06 | 0.33 | 0.00108 |
| {TAMRA}-RVEEEEWAREIGAQLRAAADDLNAQYERRRQEEQH [PUMA R143A peptide (on the M144A wild type), TAMRA-labelled] | 3.67e+06 | 0.24 | 0.00088 |
| {TAMRA}-RVEEEEWAREIGAQLRGAADDLNAQYERRRQEEQH [PUMA R143G peptide (on the M144A wild type), TAMRA-labelled] | 3.03e+06 | 1.72 | 0.0052 |
| {TAMRA}-RVEEEEFAREIGAQLRRAADDLNAQYERRRQEEQH [PUMA W133F peptide (on the M144A wild type), TAMRA-labelled] | 4.27e+06 | 0.475 | 0.00203 |
| {TAMRA}-RVEEEEWAREIGAQLRRAADALNAQYERRRQEEQH [PUMA D147A peptide (on the M144A wild type), TAMRA-labelled] | 9.4e+06 | 0.051 | 0.00048 |
| {TAMRA}-RVEEEEWAREIGAQLRRAADGLNAQYERRRQEEQH [PUMA D147G peptide (on the M144A wild type), TAMRA-labelled] | 6.76e+06 | 0.288 | 0.00195 |
| {TAMRA}-RVEEEEWAREIGAQLRRAADDLNGQYERRRQEEQH [PUMA A150G peptide (on the M144A wild type), TAMRA-labelled] | 4.84e+06 | 0.444 | 0.00215 |
| {TAMRA}-RVEEEEWAREIGAQLRRAADDLNAQYEARRQEEQH [PUMA R154A peptide (on the M144A wild type), TAMRA-labelled] | 4.86e+06 | 0.111 | 0.00054 |
| {TAMRA}-RVEEEEWAREIGAQLRRAADDLNAQYEGRRQEEQH [PUMA R154G peptide (on the M144A wild type), TAMRA-labelled] | 4.79e+06 | 0.092 | 0.00044 |
| {TAMRA}-RVEEEEWAREAGAQLRRAADDLNAQYERRRQEEQH [PUMA I137A peptide (on the M144A wild type), TAMRA-labelled] | 1.64e+06 | 3.7 | 0.006 |
